The text below walks through data of paper PMC12955206.

This data set concerns the target myeloperoxidase (MPO) (human, UniProt P05164 49-745). Nature of the data set: fluorescence strand displacement.

Sequence of myeloperoxidase (MPO) (P05164 49-745): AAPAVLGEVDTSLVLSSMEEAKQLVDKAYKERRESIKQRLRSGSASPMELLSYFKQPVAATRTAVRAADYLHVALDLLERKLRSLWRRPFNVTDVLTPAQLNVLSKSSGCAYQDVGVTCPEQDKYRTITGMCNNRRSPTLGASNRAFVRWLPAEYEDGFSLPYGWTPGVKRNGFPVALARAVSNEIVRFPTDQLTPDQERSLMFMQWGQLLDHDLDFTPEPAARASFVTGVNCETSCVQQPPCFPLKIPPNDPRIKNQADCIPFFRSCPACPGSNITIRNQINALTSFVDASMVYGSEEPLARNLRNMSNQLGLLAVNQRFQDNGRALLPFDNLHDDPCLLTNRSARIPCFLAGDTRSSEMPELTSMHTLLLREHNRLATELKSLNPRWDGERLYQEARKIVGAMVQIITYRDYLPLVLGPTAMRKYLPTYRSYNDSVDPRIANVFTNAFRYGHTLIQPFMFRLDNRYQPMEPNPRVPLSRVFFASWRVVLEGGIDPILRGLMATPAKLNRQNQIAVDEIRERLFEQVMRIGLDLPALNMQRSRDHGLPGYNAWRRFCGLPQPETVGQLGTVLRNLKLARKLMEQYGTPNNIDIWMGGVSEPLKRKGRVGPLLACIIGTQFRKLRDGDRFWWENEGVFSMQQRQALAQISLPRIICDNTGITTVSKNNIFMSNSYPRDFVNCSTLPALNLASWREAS

B1: AptCy3/TBHQ2 duplex (MPO aptamer with trigger strand) (mixed)
DNA 1: CACCTAATACGACTCACTATAGCGGATCCGAAACGCTATTCGGATGGGGTTCCAGATACTAGAAAGAGCAA
DNA 2: CATCCGAATAGCGTTTCGGATC
modifications: internal Cy3-dT at position 45 of the aptamer (Table S1)
Consider B1, for which the binding result is given as “binds”.
